According to patent US8278415B2 (Centocor, Inc., dated 2012):

Target: sEGFR-MMB (human)
Assay: phage ELISA on coated sEGFR-MMB, chemiluminescence (background typically <200 units)

Chain of sEGFR-MMB (human) (chain, as listed by the source limits assumed): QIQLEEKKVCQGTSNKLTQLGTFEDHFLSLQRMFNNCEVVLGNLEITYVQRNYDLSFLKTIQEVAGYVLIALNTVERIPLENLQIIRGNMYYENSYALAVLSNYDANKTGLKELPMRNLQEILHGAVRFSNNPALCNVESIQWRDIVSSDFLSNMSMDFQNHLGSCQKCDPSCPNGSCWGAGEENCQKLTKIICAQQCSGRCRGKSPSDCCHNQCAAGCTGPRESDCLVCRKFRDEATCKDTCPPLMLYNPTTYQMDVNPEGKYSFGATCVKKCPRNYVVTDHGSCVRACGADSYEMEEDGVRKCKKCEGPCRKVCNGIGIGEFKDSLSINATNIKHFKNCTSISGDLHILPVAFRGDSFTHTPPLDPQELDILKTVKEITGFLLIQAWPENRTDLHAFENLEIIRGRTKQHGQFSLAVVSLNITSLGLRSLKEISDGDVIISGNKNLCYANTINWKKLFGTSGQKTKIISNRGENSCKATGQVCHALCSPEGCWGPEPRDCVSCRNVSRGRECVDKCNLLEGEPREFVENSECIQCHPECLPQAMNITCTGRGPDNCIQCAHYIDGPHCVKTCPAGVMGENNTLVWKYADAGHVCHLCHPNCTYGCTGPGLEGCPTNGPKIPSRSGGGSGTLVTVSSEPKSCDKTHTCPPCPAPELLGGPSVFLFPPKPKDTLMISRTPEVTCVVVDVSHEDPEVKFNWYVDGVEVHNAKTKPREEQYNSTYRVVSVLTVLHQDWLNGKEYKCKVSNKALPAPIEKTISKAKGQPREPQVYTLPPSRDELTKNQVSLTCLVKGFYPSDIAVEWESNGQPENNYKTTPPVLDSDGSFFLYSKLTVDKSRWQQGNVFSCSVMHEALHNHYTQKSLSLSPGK

In order of falling ELISA:
1. STITSLPTLQCWPIL [S15 library phage peptide of SEQ ID NO: 16]  13300 units
2. ELGLPTLLCWPTDTL [S15 library phage peptide of SEQ ID NO: 11]  9380 units
3. LPDDSLPELICKVRG [P175]  6790 units
4. GADTLPDLLCWESSL [S15 library phage peptide of SEQ ID NO: 19]  5720 units
5. NWFSLPTLLCFPLNP [S15 library phage peptide of SEQ ID NO: 15]  3670 units
6. YRLFVDESIFFCTRL [S15 library phage peptide of SEQ ID NO: 10]  3080 units
7. PIDDESLPVLYCVTS [S15 library phage peptide of SEQ ID NO: 17]  1780 units
8. TVFTLPELVCVVAGT [S15 library phage peptide of SEQ ID NO: 20]  1520 units
9. PIFSSLPVLYCTSQL [S15 library phage peptide of SEQ ID NO: 18]  1420 units
10. HVSLQSLPELICVVS [S15 library phage peptide of SEQ ID NO: 14]  1360 units
11. LPDLICAVDSGTSGA [S15 library phage peptide of SEQ ID NO: 21]  1160 units
12. VSGILPILVCHPAAT [S15 library phage peptide of SEQ ID NO: 12]  1110 units

Target: sEGFR-MMB (human)
Assay: as above
Remark: another data set of the same source

In order of falling ELISA:
1. DSCIQFANLLYCAI [S18 library phage peptide of SEQ ID NO: 27]  53200 units
2. TDCVIFGLETYCLR [P173]  37900 units
3. SDCVLFGSKLFCSA [S18 library phage peptide of SEQ ID NO: 32]  35300 units
4. AKCIAFGNSVYCLN [S18 library phage peptide of SEQ ID NO: 24]  31500 units
5. RACITFGKVVYCEV [S18 library phage peptide of SEQ ID NO: 29]  30700 units
6. RGCVVFGDNIYCIV [S18 library phage peptide of SEQ ID NO: 35]  22000 units
7. AYCSFVAGDLVCQV [S18 library phage peptide of SEQ ID NO: 30]  19800 units
8. RDCIIFDKTVYCVI [S18 library phage peptide of SEQ ID NO: 25]  17100 units
9. TDCVRFGETIYCIV [S18 library phage peptide of SEQ ID NO: 33]  13300 units
10. KHCILFEKTVYCAK [S18 library phage peptide of SEQ ID NO: 26]  9110 units
11. AGCIAFVDVVYCAR [S18 library phage peptide of SEQ ID NO: 23]  6380 units
12. TDCIRFGVLWYCLV [S18 library phage peptide of SEQ ID NO: 28]  4750 units
13. YDCVSFGAVAYCPQ [S18 library phage peptide of SEQ ID NO: 34]  3200 units

Target: sEGFR-MMB (human)
Assay: as above
Remark: another data set of the same source

In order of rising ELISA:
1. YDCMIRADGSLICWC [S19 library phage peptide of SEQ ID NO: 38]  1290 units
2. AFCRLDFNQWLTCLV [S19 library phage peptide of SEQ ID NO: 40]  2580 units
3. CDCREAVSASLVCRY [S19 library phage peptide of SEQ ID NO: 41]  3350 units
4. MICYLVDSGNIICYK [P180]  8810 units
5. GPCVLIRDYYLLCLE [P179]  14000 units

Target: sEGFR-MMB (human)
Assay: as above
Remark: another data set of the same source

In order of rising ELISA:
1. LLCATTSFRDWFVCFT [S20 library phage peptide of SEQ ID NO: 49]  4510 units
2. SVCVGTAFPGWMVCGP [S20 library phage peptide of SEQ ID NO: 47]  4770 units
3. WMCFLEGYGASLMCQC [S20 library phage peptide of SEQ ID NO: 44]  4800 units
4. PTCDSATRRVLTICAD [S20 library phage peptide of SEQ ID NO: 43]  5420 units
5. YICTPSDIDSWYICYL [S20 library phage peptide of SEQ ID NO: 46]  6620 units
6. DSCCSFLTDGTVVCSL [S20 library phage peptide of SEQ ID NO: 45]  9540 units
7. KTCVSTTFDLWFVCFA [P176]  37400 units

Target: sEGFR-MMB (human)
Assay: as above
Remark: another data set of the same source

In order of falling ELISA:
1. SGCLDALWQCVY [P174]  34600 units
2. DACTMVFLWCSL [P177]  8660 units
3. RWCYFWWITICEL [P178]  7910 units
